These results are taken from PMC8158265, “Inhibition of catechol-O-methyltransferase by natural pentacyclic triterpenes: structure–activity relationships and kinetic mechanism” (Journal of Enzyme Inhibition and Medicinal Chemistry, 2021).

Substrate in this data set: O=c1oc2c(O)c(O)ccc2cc1-c1nc2ccccc2s1
The data set can be described thus: Inhibition kinetics of human S-COMT catalysed O-methylation of 3-BTD. Format: biochemical. Particulars: other: 3-BTD as substrate, no inhibitor; pH 7.4; 37.0 °C.

B1: recombinant human S-COMT (Homo sapiens) (protein)
chain: MGDTKEQRILNHVLQHAEPGNAQSVLEAIDTYCEQKEWAMNVGDKKGKIVDAVIQEHQPSVLLELGAYCGYSAVRMARLLSPGARLITIEINPDCAAITQRMVDFAGVKDKVTLVVGASQDIIPQLKKKYDVDTLDMVFLDHWKDRYLPDTLLLEECGLLRKGTVLLADNVICPGAPDFLAHVRGSSCFECTHYQSFLEYREVVDGLEKAIYKGPGSEAGP
notes: made in house
As a reminder, the Km is the substrate concentration at which the rate is half of its maximum. Turning to B1, the Km is 0.38 ± 0.029 µM and the Vmax came to 13.8 ± 0.30 nmol/min/mg protein.
